Our source for the stoichiometry N (Fab per spike trimer) values is publication PMC8172134.

This experiment deals with SARS-CoV-2 spike prefusion stabilized ectodomain trimer (SARS-CoV-2) (UniProt P0DTC2). Kind of experiment: cryo-EM structure.

Turning to 47D11 Fab fragment, the stoichiometry N (Fab per spike trimer) was determined as 2.
